Reference: US9187525B2, “Methods of treating ophthalmic diseases using NPR-B agonists” (Shire Orphan Therapies GmbH, dated 2015)
Numbered stars: 1 amine (or outer) side, 2 acyl side, 3 side chain; on linkers, the order of the positions; unused ones are H or OH. Square brackets hold non-standard residues; d marks the D form. Primed or numbered codes have the meaning given here. Ends that are not written are not given here. * marks the point of attachment. 2857‑Ac = 2-((2S,3R,4R,5R)-2,3,4,5,6-pentahydroxyhexylamino)acetic acid, O=C(CN(C[C@H](O)[C@@H](O)[C@H](O)[C@H](O)CO)[*:1])[*:2]; Sni = (S)-nipecotic acid, O=C([C@H]1CCCN([*:1])C1)[*:2]; pT = C[C@@H](OP(=O)(O)O)[C@H](N)C(=O)O; Cya = N[C@@H](CS(=O)(=O)O)C(=O)O; Hyp = O=C(O)[C@@H]1C[C@@H](O)CN1; pS = N[C@@H](COP(=O)(O)O)C(=O)O; Aoc(2) = CCCCCC[C@H](N)C(=O)O; NMeL = CN[C@@H](CC(C)C)C(=O)O; Hyp(2581) = not defined here; orn(Me2) = not defined here; NHexGly = CCCCCCNCC(=O)O; Octanoyl = CCCCCCCC(=O)*; 2137 = not defined here; 3816 = not defined here; dHgl = not defined here; Che = not defined here; Rni = not defined here; leu = not defined here; Occ = octanoic acid; Dha = C=C(N)C(=O)O

T1: natriuretic peptide receptor-B (human)
T1 chain: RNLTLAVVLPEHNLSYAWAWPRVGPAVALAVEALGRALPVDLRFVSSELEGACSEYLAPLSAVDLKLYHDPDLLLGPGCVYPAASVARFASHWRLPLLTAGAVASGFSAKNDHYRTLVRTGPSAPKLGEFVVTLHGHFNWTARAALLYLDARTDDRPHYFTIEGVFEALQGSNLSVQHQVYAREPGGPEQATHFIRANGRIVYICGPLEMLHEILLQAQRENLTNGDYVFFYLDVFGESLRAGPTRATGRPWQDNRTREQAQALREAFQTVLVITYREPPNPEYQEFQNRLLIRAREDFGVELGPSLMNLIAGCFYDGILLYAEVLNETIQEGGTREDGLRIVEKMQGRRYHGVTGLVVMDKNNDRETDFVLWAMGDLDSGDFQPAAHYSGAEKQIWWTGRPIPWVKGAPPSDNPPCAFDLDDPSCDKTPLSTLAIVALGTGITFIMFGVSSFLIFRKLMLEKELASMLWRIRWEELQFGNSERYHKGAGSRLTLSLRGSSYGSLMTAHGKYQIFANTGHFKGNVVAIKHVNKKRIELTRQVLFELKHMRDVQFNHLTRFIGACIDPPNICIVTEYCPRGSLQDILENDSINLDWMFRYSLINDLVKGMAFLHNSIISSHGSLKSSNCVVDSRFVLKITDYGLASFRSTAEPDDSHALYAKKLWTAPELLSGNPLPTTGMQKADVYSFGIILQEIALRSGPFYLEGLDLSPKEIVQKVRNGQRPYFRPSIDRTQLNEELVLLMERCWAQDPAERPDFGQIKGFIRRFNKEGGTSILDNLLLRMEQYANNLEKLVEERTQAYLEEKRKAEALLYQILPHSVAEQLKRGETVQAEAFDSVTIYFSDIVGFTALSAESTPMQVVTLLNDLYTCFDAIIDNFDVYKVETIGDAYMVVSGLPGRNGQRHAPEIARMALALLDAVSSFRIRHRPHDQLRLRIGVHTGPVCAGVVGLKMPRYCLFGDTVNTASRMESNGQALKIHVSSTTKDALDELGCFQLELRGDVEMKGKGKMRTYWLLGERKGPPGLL


Target: T1, natriuretic peptide receptor-B
Assay: cell-based or functional assay

Binder | EC50 group, cGMP in GTM-3 cells
[Occ][Rni]FGLKLDRI-NH2 (reading uncertain; also: printed as Occ-Rni-Phe-Gly-Leu-Lys-Leu-Asp-Arg-Ile-NH2) [JAL-0744] | ≤ 15 µM
[Occ][Sni]F[orn(Me2)]L[Hyp][NMeL]SRI-NH2 (reading uncertain; also: printed as Occ-Sni-Phe-orn(Me2)-Leu-Hyp-Nml-Ser-Arg-Ile-NH2) [JAL-1921] | ≤ 15 µM
[Occ][Sni]F[leu]L[Hyp][NMeL]SRI-NH2 (reading uncertain; also: printed as Occ-Sni-Phe-leu-Leu-Hyp-Nml-Ser-Arg-Ile-NH2) [JAL-1920] | ≤ 5 µM
H-[dHgl][Sni]FLL[Hyp][NMeL]DRI-NH2 (not fully specified (residue 4); printed as H-hgl-Sni-Phe-leu-Leu-Hyp-Nml-Asp-Arg-Ile-NH2; reading uncertain) [JAL-1897] | ≤ 5 µM
[Occ][Sni]F[leu]L[Hyp][NMeL][Cya]RI-NH2 (reading uncertain; also: printed as Occ-Sni-Phe-leu-Leu-Hyp-Nml-Cya-Arg-Ile-NH2) [JAL-1922] | ≤ 5 µM
H-K[Aoc(2)][Sni]FLL[Hyp][NMeL]DRI-NH2 (not fully specified (residue 5); printed as H-Lys-Hgl-Sni-Phe-leu-Leu-Hyp-Nml-Asp-Arg-Ile-NH2) [JAL-1898] | ≤ 5 µM
Octanoyl-[dA][dA]FGLKLDR[2137] (reading uncertain; also: printed as Occ-ala-ala-Phe-Gly-Leu-Lys-Leu-Asp-Arg-2137) [JAL-0748] | ≤ 15 µM
[Occ][Sni]F[leu]LX[NMeL]DRI-NH2 (not fully specified (residue 6); printed as Occ-Sni-Phe-leu-Leu-Hyp(Asp(-))-Nml-Asp-Arg-Ile-NH2) [JAL-1928] | ≤ 5 µM
[Occ][Sni]F[leu]L[Hyp][NMeL]DRI-OH (reading uncertain; also: printed as Occ-Sni-Phe-leu-Leu-Hyp-Nml-Asp-Arg-Ile-OH) [JAL-1930] | ≤ 5 µM
[Occ][Sni]F[orn(Me2)]L[Hyp][NMeL]SR[Che] (reading uncertain; also: printed as Occ-Sni-Phe-orn(Me2)-Leu-Hyp-Nml-Ser-Arg-Che) [JAL-1894] | ≤ 5 µM
[2857‑Ac][Aoc(2)][Sni]FLL[Hyp][NMeL]DRI-NH2 (not fully specified (residue 5); printed as (2857-Ac)-Hgl-Sni-Phe-leu-Leu-Hyp-Nml-Asp-Arg-Ile-NH2) [JAL-1901] | ≤ 5 µM
[Occ][Sni]F[orn(Me2)]L[Hyp][NMeL][pS]R[Che] (reading uncertain; also: printed as Occ-Sni-Phe-orn(Me2)-Leu-Hyp-Nml-Pse-Arg-Che) [JAL-1916] | ≤ 15 µM
[Occ][Sni]F[orn(Me2)]L[Hyp][NMeL]TRI-NH2 (reading uncertain; also: printed as Occ-Sni-Phe-orn(Me2)-Leu-Hyp-Nml-Thr-Arg-Ile-NH2) [JAL-1924] | ≤ 5 µM
Octanoyl-[dA][dA]FGLKLDR[3816] (reading uncertain; also: printed as Occ-ala-ala-Phe-Gly-Leu-Lys-Leu-Asp-Arg-3816) [JAL-0749] | ≤ 15 µM
[Occ][Sni]F[orn(Me2)]L[Hyp][NMeL]TR[Che] (reading uncertain; also: printed as Occ-Sni-Phe-orn(Me2)-Leu-Hyp-Nml-Thr-Arg-Che) [JAL-1895] | ≤ 1 µM
Octanoyl-[Sni]FLL[Hyp][NMeL][pS]R[Che] (not fully specified (some residues); printed as Occ-Sni-Phe-leu-Leu-Hyp-Nml-Pse-Arg-Che; reading uncertain) [JAL-1917] | ≤ 15 µM
[Occ][Sni]F[orn(Me2)]L[Hyp][NMeL][pT]RI-NH2 (reading uncertain; also: printed as Occ-Sni-Phe-orn(Me2)-Leu-Hyp-Nml-Pth-Arg-Ile-NH2) [JAL-1913] | ≤ 15 µM
[Occ][Sni]F[leu]L[Hyp][NMeL][pT]R[Che] (reading uncertain; also: printed as Occ-Sni-Phe-leu-Leu-Hyp-Nml-Pth-Arg-Che) [JAL-1919] | ≤ 5 µM
[Occ][Sni]F[Dha]L[Hyp][NMeL]DRI-NH2 [JAL-1915_2] | ≤ 5 µM
H-K[dHgl][Sni]FLL[Hyp][NMeL]DRI-NH2 (not fully specified (residue 5); printed as H-Lys-hgl-Sni-Phe-leu-Leu-Hyp-Nml-Asp-Arg-Ile-NH2; reading uncertain) [JAL-1899] | ≤ 5 µM
[Occ][Sni]F[orn(Me2)]L[Hyp][NMeL][Cya]RI-NH2 (reading uncertain; also: printed as Occ-Sni-Phe-orn(Me2)-Leu-Hyp-Nml-Cya-Arg-Ile-NH2) [JAL-1923] | ≤ 5 µM
[Occ][Sni]F[leu]L[Hyp(2581)][NMeL]DRI-NH2 (reading uncertain; also: printed as Occ-Sni-Phe-leu-Leu-Hyp(2581)-Nml-Asp-Arg-Ile-NH2) [JAL-1929] | ≤ 5 µM
H-KP[Aoc(2)][Sni]FLL[Hyp][NMeL]DRI-NH2 (not fully specified (residue 6); printed as H-Lys-Pro-Hgl-Sni-Phe-leu-Leu-Hyp-Nml-Asp-Arg-Ile-NH2) [JAL-1900] | ≤ 1 µM
[NHexGly][Sni]FLL[Hyp][NMeL]DRI-NH2 (not fully specified (residue 4); printed as (1625-Ac)-Sni-Phe-leu-Leu-Hyp-Nml-Asp-Arg-Ile-NH2) [JAL-1907] | ≤ 5 µM
H-[Aoc(2)][Sni]FLL[Hyp][NMeL]DRI-NH2 (not fully specified (residue 4); printed as H-Hgl-Sni-Phe-leu-Leu-Hyp-Nml-Asp-Arg-Ile-NH2) [JAL-1896] | ≤ 5 µM
[Occ][Sni]F[orn(Me2)]L[Hyp][NMeL][pT]R[Che] (reading uncertain; also: printed as Occ-Sni-Phe-orn(Me2)-Leu-Hyp-Nml-Pth-Arg-Che) [JAL-1918] | ≤ 5 µM
Octanoyl-[Sni]FLL[Hyp][NMeL][pS]RI-NH2 (not fully specified (some residues); printed as Occ-Sni-Phe-leu-Leu-Hyp-Nml-Pse-Arg-Ile-NH2) [JAL-1912] | ≤ 15 µM
